Measurements reported in publication PMC8497620, “Structure and inhibition of Cryptococcus neoformans sterylglucosidase to develop antifungal agents” (Nature Communications, 2021).

Target: C. neoformans Sgl1 (Cryptococcus neoformans var. grubii, UniProt J9W473)
Assay: H/D exchange mass spectrometry mapping of disordered regions
Settings: H/D exchange MS of C. neoformans Sgl1; per peptide (amino acids Start-End, Sequence); Fig S2a
Procedure: HDX-MS reactions were performed in a similar manner as is outlined in previous publications. HDX reactions were conducted in a final reaction volume of 50 µL with a final Sgl1 concentration of 0.6 µM (30 pmol). Exchange was carried out in triplicate for a single time point (3 s at 4 °C). Hydrogen deuterium exchange was initiated by the addition of 48 µL of D2O buffer (100 mM NaCl (20 mM pH 6.0 Bis-Tris), 90.5% D2O (V/V) to 1 µL of protein and 1 µL of H2O. Exchange was terminated by the addition of ice-cold acidic quench buffer, resulting in a final concentration of 0.6 M guanidine-HCl and 0.9% FA post quench. Samples were immediately frozen in liquid nitrogen and stored at −80 °C. Fully deuterated samples were generated by first denaturing the protein in 2 M guanidine for 5 min at 20 °C. Following denaturing, 48 µL of D2O buffer was added to the denatured protein and allowed to incubate for 5 min at 20 °C before quenching. Samples were flash frozen and stored at −80 °C until injection onto the ultra-performance liquid chromatography (UPLC) system for proteolytic cleavage, peptide separation, and injection onto a QTOF for mass analysis.
Protein sample was rapidly thawed and injected onto a UPLC system kept in a cold box at 2 °C. The protein was run over two immobilized pepsin columns (Applied Biosystems; Porosyme 2-3131-00) and the peptides were collected onto a VanGuard Precolumn trap (Waters). The trap was eluted in line with an ACQUITY 1.7 μm particle, 100 × 1 mm^2 C18 UPLC column (Waters), using a gradient of 5–36% B (Buffer A 0.1% formic acid, Buffer B 100% acetonitrile) over 16 min. MS experiments were performed on an Impact QTOF (Bruker) and peptide identification was done by running tandem MS (MS/MS) experiments run in data-dependent acquisition mode. The resulting MS/MS dataset was analyzed using PEAKS7 (PEAKS) and a false discovery rate was set at 1% using a database of purified proteins and known contaminants. HDExaminer Software (Sierra Analytics) was used to automatically calculate the level of deuterium incorporation into each peptide. All peptides were manually inspected for correct charge state and presence of overlapping peptides. Deuteration levels were calculated using the centroid of the experimental isotope clusters, with correction for back exchange generated using the fully deuterated sample. The mass spectrometry proteomics data have been deposited to the ProteomeXchange Consortium via the PRIDE partner repository[31] with the dataset identifier PXD024981.

Chain of C. neoformans Sgl1 (J9W473 entry or part of it): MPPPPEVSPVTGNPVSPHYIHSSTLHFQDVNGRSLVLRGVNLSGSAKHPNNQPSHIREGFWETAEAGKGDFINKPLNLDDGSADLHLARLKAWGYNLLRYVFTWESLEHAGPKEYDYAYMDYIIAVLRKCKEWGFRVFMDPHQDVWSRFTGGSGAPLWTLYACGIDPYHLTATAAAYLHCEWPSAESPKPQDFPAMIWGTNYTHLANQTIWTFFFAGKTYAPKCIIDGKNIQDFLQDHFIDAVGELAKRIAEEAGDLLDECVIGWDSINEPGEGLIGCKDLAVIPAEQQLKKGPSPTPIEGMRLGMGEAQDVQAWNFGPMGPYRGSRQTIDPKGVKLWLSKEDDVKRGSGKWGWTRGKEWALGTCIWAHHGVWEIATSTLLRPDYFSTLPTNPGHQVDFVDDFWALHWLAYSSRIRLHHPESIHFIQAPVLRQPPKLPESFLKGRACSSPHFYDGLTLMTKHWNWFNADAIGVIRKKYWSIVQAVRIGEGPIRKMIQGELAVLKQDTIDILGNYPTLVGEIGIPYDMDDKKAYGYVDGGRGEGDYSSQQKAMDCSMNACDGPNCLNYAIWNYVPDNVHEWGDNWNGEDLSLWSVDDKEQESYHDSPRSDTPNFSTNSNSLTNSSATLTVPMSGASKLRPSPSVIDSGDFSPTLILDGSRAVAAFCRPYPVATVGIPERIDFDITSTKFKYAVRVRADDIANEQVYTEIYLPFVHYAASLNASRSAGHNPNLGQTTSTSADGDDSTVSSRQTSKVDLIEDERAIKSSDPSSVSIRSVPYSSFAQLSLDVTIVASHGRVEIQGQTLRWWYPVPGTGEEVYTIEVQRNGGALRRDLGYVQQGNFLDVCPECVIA

Substance	% Deuterium incorporation, Average [%]
IDSGDFSPTL	36.2
STNSNSLTNSSATL	102.1
KKAYGYVDGGRGEGDYSSQQKAMD	29.0
VTIVASHGRVEIQGQTLRWWYPVPGTGE	23.1
IEDERAIKSSDPSSVS	106.2
LRWWYPVPGTGE	31.2
AKRIAEEAGDLLDE	12.0
IGWDSINEPGEGL	4.5
STLPTNPGHQVDF	73.1
DVTIVASHGRVEIQGQTLRWWYPVPGTGEEV	19.0
IEVQRNGGALRRDLG	58.5
LSGSAKHPNNQPSHIREGF	54.3
AKRIAEEAGDL	9.2
VLKQDTIDILGNYPTL	10.8
AIWNYVPDNVHEWGDN	23.9
IDILGNYPTL	20.4
IDSGDFSPTLIL	26.0
RGVNLSGSAKHPNNQPSH	44.0
TIDPKGVKL	7.9
TWESLEHAGPKEYD	5.0
NASRSAGHNPNLGQTTSTSADGDDSTVSSRQTSKVDL	102.1
YVQQGNF	102.8
LAVIPAEQQLKKGPSPTPIEG	28.2
QDVNGRS	17.0

Substance	% Deuterium incorporation, Average [%]
IEDERAIKSSDPSSVSIRSVPYSSF	100.4
SIRSVPYSSF	96.6
RGVNLSGSAKHPNNQPSHIREGF	44.7
LAVIPAEQQLKKGPSPTPIEGM	28.2
PVLRQPPKLPESFL	40.7
TIEVQRNGGAL	26.9
IKSSDPSS	106.2
AYSSRIRLHHPESIHFI	3.1
ATLTVPMSGASKLRPSPSVIDSGDFSPTL	63.6
SSRIRLHHPESIHF	4.1
LRKCKEWGF	-8.6
IIDGKNIQDFLQDHF	7.4
WLSKEDDVKRGSGKWGWTRGKE	27.6
AVIPAEQQL	59.2
VQAWNFGPMGPYRGSRQTIDPKGVKL	24.9
NADAIGVIRKKYWSIVQ	33.7
VQRNGGALRRDLG	72.0
PVTGNPVSPHYIHSSTLHF	30.4
ANQTIWTF	-1.6
YVDGGRGEGDYSSQQ	65.8
PVTGNPVSPHYIHSSTL	36.8
LVLRGVNLSGSAKHPNNQPSHIREGF	33.7
WNFGPMGPYRGSRQTIDPKGVKL	28.6
IRKKYWSIVQAV	45.4

Substance	% Deuterium incorporation, Average [%]
EIYLPFVHY	0.7
IATSTLLRPDYFSTLPTNPGHQVDF	31.3
WETAEAGKGDF	47.7
IEDERAIKSSDPSS	101.2
YTHLANQ	4.9
QQLKKGPSPTPIEG	10.8
YVDGGRGEGDYSSQ	64.9
NYVPDNVHEWGDN	41.1
LAYSSRIRLHHPESIHF	4.9
DAIGVIRKKYWSIVQA	36.2
DITSTKFKYAVRVRA	3.2
NYVPDNVHE	30.1
VWEIATSTLLRPDYFS	21.9
VGIPERIDF	8.3
SRSAGHNPNLGQTTSTSADGDD	102.7
RVFMDPHQDV	5.4
SINEPGEGL	13.9
WNFGPMGPYRGSRQ	53.6
VIRKKYWSIVQ	49.5
DVTIVASHGRVEIQGQTLRWWYPVPGTGE	20.6
FCRPYPVATVGIPERIDF	5.0
SRSAGHNPNLGQTTSTSADGDDSTVSSRQTSKVDL	101.7
ARLKAWGYNLL	2.5
FCRPYPVAT	4.6

Substance	% Deuterium incorporation, Average [%]
VSIRSVPYSSF	97.9
AVLKQDTIDILGNYPTL	14.1
WESLEHAGPKEYDYA	8.8
QLKKGPSPTPIEG	10.2
CVIGWDSINEPGEG	3.6
CVIGWDSINEPGEGLIGCKDL	4.2
VTIVASHGRVEIQGQTLRWWYPVPGTGEEV	18.9
RAIKSSDPSSVS	104.6
DITSTKFKYAVRVRADD	4.2
PVLRQPPKLPESF	50.6
STNSNSLTNSSATLTVPMSGASKLRPSPSV	91.4
LTVPMSGASKLRPSPSV	86.0
RRDLGYVQQGNF	98.0
LRPDYFSTLPTNPGHQVDF	37.3
WNFGPMGPYRGSRQTIDPKG	43.4
RRDLGYVQQGN	98.6
HCEWPSAESPKPQDF	58.4
CIWAHHGVWE	1.8
IEDERAIKSSDPSSV	101.6
YAIWNYVPDNVHEWGDN	15.4
LRWWYPVPGTGEEV	23.5
CKDLAVIPAEQQLKKGPSPTPIEG	25.2
